Earlier results as cited in doi:10.1101/2025.09.24.678334.

Biological target: TATA-binding protein (Homo sapiens) (UniProt P20226)
Sequence of UniProt P20226 (P20226 whole entry): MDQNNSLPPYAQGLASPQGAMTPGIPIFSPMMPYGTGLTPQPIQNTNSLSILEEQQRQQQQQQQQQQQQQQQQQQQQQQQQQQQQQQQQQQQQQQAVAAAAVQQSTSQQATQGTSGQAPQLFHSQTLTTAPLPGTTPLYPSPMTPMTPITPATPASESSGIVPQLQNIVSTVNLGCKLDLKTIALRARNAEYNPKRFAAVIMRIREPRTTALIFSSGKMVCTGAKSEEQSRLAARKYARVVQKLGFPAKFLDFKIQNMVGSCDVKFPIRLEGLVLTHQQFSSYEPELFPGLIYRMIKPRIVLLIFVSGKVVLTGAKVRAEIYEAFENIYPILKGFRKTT

Kd: 1 nM
Substance: Importin 9 (from UniProt Q96P70)
